In patent publication US20030064916A1:

Target: HLA-A2.1 (human), A*02:0
Assay: cell-based or functional assay

Substance: A2-specific monoclonal antibody PA2.1 (ATCC HB 117)
- Specific 51Cr release (%) by CTL A2 149, E:T 10, BT 549 targets, with anti-A2 (53 without): 37%
- Specific 51Cr release (%) by CTL A2 149, E:T 10, MCF7 targets, with anti-A2 (38 without): 13%
- Specific 51Cr release (%) by CTL A2 149, E:T 10, MDA 231 targets, with anti-A2 (24 without): 5%
- Specific 51Cr release (%) by CTL A2 149, E:T 10, Ramos A2.1 targets, with anti-A2 (39 without): 12%
- Specific 51Cr release (%) by CTL A2 149, E:T 10, SW 480 targets, with anti-A2 (55 without): 26%
- Specific 51Cr release (%) by CTL A2 264, E:T 10, BT 549 targets, with anti-A2 (79 without): 47%
- Specific 51Cr release (%) by CTL A2 264, E:T 10, MCF7 targets, with anti-A2 (79 without): 38%
- Specific 51Cr release (%) by CTL A2 264, E:T 10, MDA 231 targets, with anti-A2 (31 without): 10%
- Specific 51Cr release (%) by CTL A2 264, E:T 10, Ramos A2.1 targets, with anti-A2 (43 without): 0%
- Specific 51Cr release (%) by CTL A2 264, E:T 10, SW 480 targets, with anti-A2 (59 without): 17%
